Data published in US20230391826A1, “COMPOSITIONS AND METHODS FOR TREATING DISEASES” (Sanford Burnham Prebys Medical Discovery Institute, priority 2020, published 2023).
*1 amine or outer side, *2 acyl side, *3 side chain or, on linkers, in order; H or OH if unused. Where no end group is shown, it is not given here. [ ]: non-standard residue; d: D form. Ccam = carbamidomethyl-cysteine, NC(=O)CSC[C@H](N[*:1])C(=O)[*:2]; βAla = NCCC(=O)O

What was measured:
[1] = biological target: EphA2 extracellular domain fused to the Fc portion of an antibody (EphA2-Fc); assay: ELISA, inhibition of ephrinA5-AP binding to immobilized EphA2-Fc
[2] = biological target: EphA2 extracellular domain fused to the Fc portion of an antibody (EphA2-Fc); assay: ELISA, inhibition of ephrinA5-AP binding to immobilized EphA2-Fc; representative experiment, triplicates

Sequence of EphA2 extracellular domain fused to the Fc portion of an antibody (EphA2-Fc) (P29317 whole entry, the tested form may be a part): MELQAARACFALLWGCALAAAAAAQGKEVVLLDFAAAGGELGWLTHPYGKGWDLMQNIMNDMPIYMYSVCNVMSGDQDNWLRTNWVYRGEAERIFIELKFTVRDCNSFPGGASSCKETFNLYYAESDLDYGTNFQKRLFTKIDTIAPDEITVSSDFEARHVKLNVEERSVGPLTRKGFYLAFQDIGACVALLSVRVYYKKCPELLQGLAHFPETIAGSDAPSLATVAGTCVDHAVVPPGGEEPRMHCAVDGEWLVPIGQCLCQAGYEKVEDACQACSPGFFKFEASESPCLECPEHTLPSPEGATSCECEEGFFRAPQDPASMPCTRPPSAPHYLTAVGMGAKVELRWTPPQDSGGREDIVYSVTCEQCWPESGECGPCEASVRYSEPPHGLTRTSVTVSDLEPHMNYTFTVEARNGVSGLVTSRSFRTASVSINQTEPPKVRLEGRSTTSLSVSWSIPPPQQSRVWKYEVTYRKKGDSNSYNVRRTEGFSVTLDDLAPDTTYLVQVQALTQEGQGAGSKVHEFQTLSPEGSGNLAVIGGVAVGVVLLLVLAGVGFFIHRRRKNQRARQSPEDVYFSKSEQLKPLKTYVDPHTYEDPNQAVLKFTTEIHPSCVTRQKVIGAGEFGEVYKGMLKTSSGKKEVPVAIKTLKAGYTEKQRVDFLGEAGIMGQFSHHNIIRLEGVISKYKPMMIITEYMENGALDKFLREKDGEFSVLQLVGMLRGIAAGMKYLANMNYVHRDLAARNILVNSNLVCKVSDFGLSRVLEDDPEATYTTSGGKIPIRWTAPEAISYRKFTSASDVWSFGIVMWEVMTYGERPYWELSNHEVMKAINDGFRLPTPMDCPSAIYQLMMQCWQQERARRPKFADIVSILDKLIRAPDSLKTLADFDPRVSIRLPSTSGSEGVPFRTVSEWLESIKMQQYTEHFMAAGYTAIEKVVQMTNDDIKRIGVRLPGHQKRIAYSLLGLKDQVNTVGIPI

Row | IC50 [1] | IC50 [2] | Binder
1 | 1400 nM | 1300 nM | [Ccam]GAWLAYPDSVPYR [CcamGA-WLA-YR]
2 | 0.54 nM | 0.58 nM | Click dimer (N-ter) (not fully specified; propargylglycine (Pra) at position 1, joined by a click linkage to KN3 of the other chain; C-terminal amide; azido-lysine (KN3) at position 1, joined by a click linkage to Pra of the other chain; C-terminal amide) peptide 1: KAWLAYPDSVPYRPK peptide 2: XGAWLAYPDSVPYRPK
3 | 0.4 nM | 0.38 nM | [βAla]WLAYPDSVPYRPKGGAWLAYPDSVPYRPK-NH2 (N-terminus assumed; SMILES CC(C)C[C@H](NC(=O)[C@H](Cc1c[nH]c2ccccc12)NC(=O)CCN)C(=O)N[C@@H](C)C(=O)N[C@@H](Cc1ccc(O)cc1)C(=O)N1CCC[C@H]1C(=O)N[C@@H](CC(=O)O)C(=O)N[C@@H](CO)C(=O)N[C@H](C(=O)N1CCC[C@H]1C(=O)N[C@@H](Cc1ccc(O)cc1)C(=O)N[C@@H](CCCNC(=N)N)C(=O)N1CCC[C@H]1C(=O)N[C@@H](CCCCN)C(=O)NCC(=O)NCC(=O)N[C@@H](C)C(=O)N[C@@H](Cc1c[nH]c2ccccc12)C(=O)N[C@@H](CC(C)C)C(=O)N[C@@H](C)C(=O)N[C@@H](Cc1ccc(O)cc1)C(=O)N1CCC[C@H]1C(=O)N[C@@H](CC(=O)O)C(=O)N[C@@H](CO)C(=O)N[C@H](C(=O)N1CCC[C@H]1C(=O)N[C@@H](Cc1ccc(O)cc1)C(=O)N[C@@H](CCCNC(=N)N)C(=O)N1CCC[C@H]1C(=O)N[C@@H](CCCCN)C(N)=O)C(C)C)C(C)C) [linear dimer (head-to-tail)]
4 | 0.77 nM | 0.77 nM | Lys-linked dimer (C-ter) (also: bond at chain A 15 to a chain's C-terminus) peptide 1: [βAla]WLAYPDSVPYRPKK peptide 2: [βAla]WLAYPDSVPYRPK
